Assay results from patent publication US9393271B2, “GHRH agonists for islet cell transplantation and function and the treatment of diabetes” (UNIVERSITY OF MIAMI, priority 2012, dated 2016).
Where two headings read alike, the source gives them in different places. Non-standard residues stand in square brackets, D forms with d. Residues, ends and D or L forms follow the SMILES beside them. No end group written: not given here. *: point of attachment. NMeY = CN[C@@H](Cc1ccc(O)cc1)C(=O)O; Agmatine = N=C(N)NCCCCN*; Nle = CCCC[C@H](N)C(=O)O; Orn = NCCC[C@H](N)C(=O)O; Abu = CC[C@H](N)C(=O)O

What was measured:
[1] = test system: rat islets; assay: Viability of rat islets alone or in co-culture with adrenal cells; assay type: cell-based; details: rat islets alone, 10^-8 M, 24 hrs
Experimental: Pancreatic islets were isolated from female Wistar rats as described in prior art, and according to guidelines established by the University Institutional Animal Care and Use Committee. Briefly, animals were anesthetized by 3% isoflurane and digestion solution (Collagenase V; Sigma-Aldrich) was injected via the pancreatic duct. Islets were isolated by discontinuous Ficoll gradient centrifugation (Sigma-Aldrich). Isolated islets were cultured in RPMI 1640 (PAA) supplemented with 10% FBS at 37° C. in a 5% CO2 atmosphere prior to further experimentation. Yield and purity of islets were determined by microscopic sizing after staining with dithizone (Sigma-Aldrich) as previously described.
Female Wistar rats were used as adrenal donors according to guidelines established by the University Institutional Animal Care and Use Committee. After euthanization, the adrenal glands were rapidly removed and kept in PBS at 4° C. After removal of adipose tissue, the capsule was removed. The tissue was then incubated at 37° C. in PBS containing collagenase type II (2.0 mg/ml; Sigma-Aldrich) and DNase (0.15 mg/ml; Sigma-Aldrich). After incubation for 30 min, the digestion was stopped by adding cold PBS. […]
Isolated rat islets and co-cultured islets were treated with P-27403 at a concentration of 10^−8 M or with 0.1% DMSO as control for 24 hrs, and then analyzed for viability. […]

[2] = test system: GH level; assay: In vivo endocrine activity (GH release), subcutaneous administration; details: rat, s.c.
Experimental: Subcutaneous Administration. Adult male rats were used and anesthetized with pentobarbital (6 mg/100 g, b.w.), by i.p. injection. […] Blood samples were taken from the jugular vein 5, 15 and/or 30 minutes after the injection. The blood samples were centrifuged, plasma was removed and the GH level was measured by ELISA. The results are summarized in terms of potency in Table 9.

[3] = target: T1, GHRH receptor (human pituitary membrane homogenates) (Homo sapiens, UniProt Q02643); assay: GHRH receptor binding, ligand competition with 125I-labeled JV-1-42 (Table 7); parameters: Normal human pituitaries were purchased from the National Hormone and Peptide Program; tissue National Hormone and Peptide Program (A. F. Parlow, Harbor-UCLA Medical Center, Torrance, Calif.); host or cells: normal human pituitary, membrane fraction / homogenate; details: JI-38 = 1
T1 sequence (Q02643 23-423): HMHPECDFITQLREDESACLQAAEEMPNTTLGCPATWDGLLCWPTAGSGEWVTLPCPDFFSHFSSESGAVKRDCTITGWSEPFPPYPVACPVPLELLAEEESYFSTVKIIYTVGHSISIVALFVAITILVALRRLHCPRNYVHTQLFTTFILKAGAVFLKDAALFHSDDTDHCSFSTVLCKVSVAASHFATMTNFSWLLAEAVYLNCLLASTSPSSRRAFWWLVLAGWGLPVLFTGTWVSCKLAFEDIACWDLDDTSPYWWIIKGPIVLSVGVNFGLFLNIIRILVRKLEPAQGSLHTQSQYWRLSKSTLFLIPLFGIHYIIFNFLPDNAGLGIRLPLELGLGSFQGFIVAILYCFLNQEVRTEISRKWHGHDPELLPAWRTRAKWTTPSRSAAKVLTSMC

[4] = test system: INS-1 cells; assay: INS-1 proliferation (BrdU Cell Proliferation Assay); assay type: cell-based, rat
Experimental: For determination of proliferation activity, BrdU incorporation was performed in INS-1 cells following exposure to P-27403. Proliferation was measured using BrdU Cell Proliferation Assay (Millipore) following the manufacturer's description. The maximal enhancement in proliferation rate of 16% compared to control was found at 10^−8 M concentration of P-27403 (FIG. 1C).
INS-1 cells were grown for 72 h before experimentation. Cells were treated with GHRH agonists MR356, MR367, and MR403 at different concentrations or with 0.1% (vol/vol) DMSO as control for 24 h, 48 h and 72 h. Proliferation was measured using BrdU Cell Proliferation Assay (Millipore) following the manufacturer's description.

[5] = test system: GH level; assay: In vivo endocrine activity (GH release), intravenous administration; details: rat
Experimental: In vivo tests on endocrine activity of new GHRH agonists (Intravenous administration). For in vivo tests based on intravenous administration, adult male Sprague-Dawley rats were anesthetized with pentobarbital (6 mg/100/g, b.w.), and GHRH agonists were injected 20 minutes after the injection of pentobarbital. Blood samples were taken from the jugular vein (pretreated level), immediately after hGHRH(1-29)NH2 injection (as a control) or after hGHRH analogs injection. Blood samples were taken from the jugular vein 5, 15 and 30 minutes after the injection. The blood samples were centrifuged, plasma was removed and the GH level was measured by ELISA.

[6] = test system: INS-1 cells; assay: INS-1 cell viability (CellTiter 96 AQueous One Solution); assay type: cell-based, rat; details: 10^-7 to 10^-9 M, 24 hrs
Experimental: (§1) Rat insulinoma cells (INS-1) were cultured in RPMI Medium 1640 (PAA) containing 2 mM L-glutamine, 10% FBS, 1 mM Na-pyruvate, 50 μM 2-mercaptoethanol, and 100 U/mL penicillin/streptomycin (Gibco) at 37° C. in a 5% CO2 humidified incubator. Medium was exchanged every second day and cells were passaged once per week. INS-1 cells were treated with the GHRH agonist P-27403 at concentrations from 10^−7 to 10^−9 M for 24 hrs and was analyzed for viability and apoptosis. Viability was assessed using CellTiter 96 AQueous One Solution Cell Proliferation Assay (Promega) according to the manufacturer's instructions. Apoptosis was assayed by determination of caspase 3/7 activity using Caspase-Glo 3/7 Assay (Promega) according to manufacturer's instructions.
INS-1 cells were grown for 72 hours before experimentation. Cells were treated with different GHRH agonist peptides (MR-356/P-20356, MR-361/P-20361, MR-367/P-20367, MR-403/P-27403, MR-409/P-27409, MR-502/P-25502) at different concentrations (10^−6-10^−10 M) or with 0.1% (vol/vol) DMSO as control for 24 h, 48 h and 72 h. Viability was assessed using CellTiter 96 AQueous One Solution Cell Proliferation Assay (Promega) according to the manufacturer's instructions. Treatment of INS-1 cells with GHRH agonist peptides for 72 h improved cell viability. Cell viability was expressed as percent of cells treated with control DMSO (FIG. 7).

[7] = test system: INS-1 cells; assay: INS-1 apoptosis, caspase 3/7 activity (Caspase-Glo 3/7); assay type: cell-based, rat; details: 24 hrs
Experimental: as §1
INS-1 cells were grown for 72 h before experimentation. Cells were treated with various GHRH agonist peptides at different concentrations or with 0.1% (vol/vol) DMSO as control for 24 h, 48 h and 72 h. Apoptosis was assayed by determination of caspase 3/7 activity using Caspase-Glo 3/7 Assay (Promega) according to the manufacturer's instructions.

[8] = target: GHRH receptor in human pituitary membrane homogenates (human) (UniProt Q02643); assay: ligand competition, 125I-JV-1-42 displaced, human pituitary membranes
[9] = target: GHRH receptor in human pituitary membrane homogenates (human) (UniProt Q02643); assay: ligand competition, [His1,125I-Tyr10,Nle27]hGHRH(1-32)NH2 displaced, human pituitary membranes
[10] = target: GHRH receptor in human pituitary membrane homogenates (human) (UniProt Q02643); assay: ligand competition, 125I-JV-1-42 displaced, human pituitary membranes; remark: listed apart in the source
[11] = target: T2, GHRH receptor (rat) (rat, UniProt Q02644)
T2 sequence: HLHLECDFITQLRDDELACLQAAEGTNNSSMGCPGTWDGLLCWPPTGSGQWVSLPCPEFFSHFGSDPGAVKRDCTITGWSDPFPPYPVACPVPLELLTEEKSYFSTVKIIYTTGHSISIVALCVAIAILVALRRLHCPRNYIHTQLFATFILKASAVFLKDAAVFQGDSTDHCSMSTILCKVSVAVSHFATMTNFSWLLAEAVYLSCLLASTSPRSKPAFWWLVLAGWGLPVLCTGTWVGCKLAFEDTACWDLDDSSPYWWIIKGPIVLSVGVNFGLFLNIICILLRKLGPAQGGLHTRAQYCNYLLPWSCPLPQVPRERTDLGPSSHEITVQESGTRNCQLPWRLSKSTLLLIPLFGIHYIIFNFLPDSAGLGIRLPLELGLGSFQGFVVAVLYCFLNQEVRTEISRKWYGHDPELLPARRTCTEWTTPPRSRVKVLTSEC

[12] = target: T2, GHRH receptor (rat); assay: cell-based or functional assay
[13] = target: T3, GHRH receptor in human pituitary membrane homogenates (human, UniProt Q02643); assay: ligand competition, 125I-JV-1-42 displaced, human pituitary membranes
T3 sequence: T1 sequence (Q02643 23-423)

[14] = target: T3, GHRH receptor in human pituitary …; assay: as above; remark: listed apart in the source

CCCC[C@H](NC(=O)[C@@H](NC(=O)[C@H](CC(=O)O)NC(=O)[C@H](CCC(N)=O)NC(=O)[C@H](CC(C)C)NC(=O)[C@H](CC(C)C)NC(=O)[C@H](CCCN)NC(=O)[C@H](CCCNC(=N)N)NC(=O)[C@H](C)NC(=O)[C@H](CO)NC(=O)[C@H](CC(C)C)NC(=O)[C@H](CCC(N)=O)NC(=O)[C@H](CC)NC(=O)[C@H](CC(C)C)NC(=O)[C@@H](NC(=O)[C@H](CCCN)NC(=O)[C@H](CCCNC(=N)N)NC(=O)[C@H](Cc1ccc(O)cc1)NC(=O)[C@H](CO)NC(=O)[C@H](CCC(N)=O)NC(=O)[C@@H](NC(=O)[C@H](Cc1ccccc1)NC(=O)[C@@H](NC(=O)[C@H](C)NC(=O)[C@H](CC(=O)O)NC(=O)[C@@H](C)NC(=O)[C@H](Cc1ccc(O)cc1)NC)[C@@H](C)CC)[C@@H](C)O)C(C)C)[C@@H](C)CC)C(=O)N[C@@H](CC(=O)O)C(=O)N[C@@H](CCCNC(=N)N)C(=O)NC [Peptide P-27403, [N—Me-Tyr^1, D-Ala^2, Gln^8, Orn^12, Abu^15, Orn^21, Nle^27, Asp^28]hGHRH(1-29)NH—CH3] (H-[NMeY][dA]DAIFTQSYR[Orn]VL[Abu]QLSAR[Orn]LLQDI[Nle]DR-NHMe)
Islet viability [1]: increase in viability
Islet viability ([1]; listed as MR403): increase of viability
Stimulation of growth hormone levels after s.c. administration (comparison in words) [2]: stimulated greater growth hormone levels than hGHRH or JI-38
Relative affinitiy (Binding potency) vs JI-38 [3]: 27.19
Enhancement in proliferation rate compared to control ([4]; 10^-8 M, 24 hrs): 16%
Cell proliferation compared to control ([4]; different concentrations, 24 h, 48 h and 72 h): significantly induced cell proliferation
Stimulation of growth hormone levels after i.v. administration (comparison in words) [5]: most potent
Viability compared to control [6]: increased viability at all concentrations used
Apoptosis, caspase 3/7 activity ([7]; 10^-7 to 10^-9 M): overall reduction of apoptosis
Reduction of apoptosis (caspases 3/7 activity) ([7]; 10^-8 M): 14%
Reduction of apoptosis (caspases 3/7 activity) ([7]; 10^-9 M): 18%

JI-38 (peptide)
IC50 [8]: 1.71 nM
relative affinity (binding potency) vs GHRH (GHRH(1-29) = 1) [8]: 2.4
IC50 [9]: 1.95 nM
relative affinity (binding potency) vs GHRH (GHRH(1-29) = 1) [9]: 3.03
relative affinity (binding potency) vs JI-38 [9]: 1 JI-38 = 1
IC50 [10]: 4.35 nM
relative affinity (binding potency) vs JI-38 [10]: 1 JI-38 = 1
GH release from superfused rat pituitary cells, 1 nM for 3 min, GH by ELISA (peak fraction, average) [11]: 195 ng/mL

B1: [N-Me-Tyr1, Gln8, Orn12, Abu15, Orn21, Nle27, Asp28, Agm29]hGHRH(1-29) (peptide)
peptide: [NMeY]ADAIFTQSYR[Orn]VL[Abu]QLSAR[Orn]LLQDI[Nle]D[Agmatine]
GH-releasing potency in superfused rat pituitary cells relative to JI-38 [12]: ~3 times (vs JI-38)
IC50 [13]: 0.27 nM
relative affinity (binding potency) vs JI-38 [13]: 16.1 JI-38 = 1
IC50 [14]: 0.01 nM
relative affinity (binding potency) vs GHRH [14]: 406 GHRH(1-29) = 1
relative affinity (binding potency) vs JI-38 [14]: 171 JI-38 = 1
